Results as given in patent US20230279153A1 (Regeneron, published 2023).

T1: mouse PD1 (mouse, UniProt Q02242 25-288)
T1 sequence (looked up): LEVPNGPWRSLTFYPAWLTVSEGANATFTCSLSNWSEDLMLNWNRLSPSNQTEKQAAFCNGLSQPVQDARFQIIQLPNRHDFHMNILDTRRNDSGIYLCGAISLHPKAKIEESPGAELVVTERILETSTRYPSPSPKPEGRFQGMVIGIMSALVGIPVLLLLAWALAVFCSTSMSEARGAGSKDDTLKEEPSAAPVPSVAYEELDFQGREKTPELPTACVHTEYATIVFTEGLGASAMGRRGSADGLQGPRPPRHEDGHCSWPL

T2: mouse CD20 (mouse, UniProt P19437 1-291)
T2 construct: whole, on cells; also called mCD20; murine CD20
T2 sequence (looked up): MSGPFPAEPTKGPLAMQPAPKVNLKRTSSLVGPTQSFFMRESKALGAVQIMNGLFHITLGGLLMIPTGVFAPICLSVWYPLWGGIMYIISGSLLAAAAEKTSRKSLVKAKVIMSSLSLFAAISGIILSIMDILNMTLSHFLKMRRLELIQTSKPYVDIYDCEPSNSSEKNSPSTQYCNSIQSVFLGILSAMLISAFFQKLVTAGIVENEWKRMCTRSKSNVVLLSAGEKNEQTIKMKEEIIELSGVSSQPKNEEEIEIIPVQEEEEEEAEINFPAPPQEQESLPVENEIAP


Tests used:
mouse PD1 [1] = target: T1, mouse PD1; assay: cell-based or functional assay
mouse PD1 [2] = target: T1, mouse PD1; assay: flow cytometry on Jurkat/mPD1 cells
Procedure: (§1) Cells (HEK 293, MC38 over-expressing mCD20 or Jurkat over-expressing mPD1) were resuspended in FACS wash (PBS with 1% FBS) at 1×10⁶ cells/mL. The staining was performed in 1×10⁵ cells per well. The antibodies were diluted with a ratio of 1:5 from a starting concentration of 1.3×10⁻⁰⁷ M. The diluted antibodies were then added into the wells containing cells. Cells were stained for 30 min at 2-8° C. and washed twice with FACS wash buffer. APC-conjugated goat anti-human IgG (Jackson Immuno Research, 109-607-003, 1:400) was added to stain the cells for 30 min at 2-8° C. Following washing, cells were fixed in 2% paraformaldehyde for 30 min at 2-8° C. After two washes, stained cells were analyzed using BD LSRFortessa™ FACS instrument. The results were analyzed by FlowJo. FSC/SSC gates were used to select mononuclear cells.

mouse CD20 [3] = target: T2, mouse CD20; assay: flow cytometry on HEK293/mCD20 cells
Procedure: as §1

mouse CD20 [4] = target: T2, mouse CD20; assay: flow cytometry on MC38/mCD20 cells
Procedure: as §1

Max % inhibition, luciferase bioassay, 2.5 nM CD3 bsAb (mouse PD1 [1]) [%]	Max MFI (mouse PD1 [2]) [MFI]	Max MFI (mouse CD20 [3]) [MFI]	Max MFI (mouse CD20 [4]) [MFI]	Max % inhibition, luciferase bioassay, 1nM CD3 bsAb (mouse PD1 [1]) [%]	EC50 (mouse CD20 [3]) [nM]	EC50 (mouse CD20 [4]) [nM]	Molecule	binding result (mouse PD1 [2])
			94.9				Single arm mPDL1 WT-Fc (from UniProt Q9EP73 19-239) (Fc fusion)	
	198		48300			18	18B12-scFvFc (scFv, V domains shown) VH: QVQLQQPGAELVRPGTSVKLSCKASGYTFTSYWMHWIKQRPGQGLEWIGVIDPSDNYTKYNQKFKGKATLTVDTSSSTAYMQLSSLTSEDSAVYFCAREGYYGSSPWFAYWGQGTLVTVSS VL: QIVMSQSPAILSASPGEKVTMTCRARSSVSYIHWYQQKPGSSPKPWIYATSNLASGVPGRFSGSGSGTSYSLTITRVEAEDAATYYCQQWSSKPPTFGGGTKLEIK	no binding (tested: starting concentration of 1.3×10^-07 M)

The next lines start with the molecule.

Molecule	Max % inhibition, luciferase bioassay, 2.5 nM CD3 bsAb (mouse PD1 [1]) [%]	Max MFI (mouse PD1 [2]) [MFI]	Max MFI (mouse CD20 [3]) [MFI]	Max MFI (mouse CD20 [4]) [MFI]	Max % inhibition, luciferase bioassay, 1nM CD3 bsAb (mouse PD1 [1]) [%]	EC50 (mouse CD20 [3]) [nM]	EC50 (mouse CD20 [4]) [nM]	binding result (mouse PD1 [2])
REGN1932 (hIgG1 control) (antibody)	3	90.4	14.3	140				
1B12IgG1EN (antibody, Control, bivalent anti-mCD20 IgG with knob and hole-star heavy chains; also called 1B12lgG1EN) heavy 1: QVQLQQPGAELVRPGTSVKLSCKASGYTFTSYWMHWIKQRPGQGLEWIGVIDPSDNYTKYNQKFKGKATLTVDTSSSTAYMQLSSLTSEDSAVYFCAREGYYGSSPWFAYWGQGTLVTVSSASTKGPSVFPLAPSSKSTSGGTAALGCLVKDYFPEPVTVSWNSGALTSGVHTFPAVLQSSGLYSLSSVVTVPSSSLGTQTYICNVNHKPSNTKVDKKVEPKSCDKTHTCPPCPAPEAEGAPSVFLFPPKPKDTLMISRTPEVTCVVVDVSHEDPEVKFNWYVDGVEVHNAKTKPREEQYNSTYRVVSVLTVLHQDWLNGKEYKCKVSNKALPSSIEKTISKAKGQPREPQVYTLPPCRDELTKNQVSLWCLVKGFYPSDIAVEWESNGQPENNYKTTPPVLDSDGSFFLYSKLTVDKSRWQQGNVFSCSVMHEALHNHYTQKSLSLSPGK heavy 2: QVQLQQPGAELVRPGTSVKLSCKASGYTFTSYWMHWIKQRPGQGLEWIGVIDPSDNYTKYNQKFKGKATLTVDTSSSTAYMQLSSLTSEDSAVYFCAREGYYGSSPWFAYWGQGTLVTVSSASTKGPSVFPLAPSSKSTSGGTAALGCLVKDYFPEPVTVSWNSGALTSGVHTFPAVLQSSGLYSLSSVVTVPSSSLGTQTYICNVNHKPSNTKVDKKVEPKSCDKTHTCPPCPAPEAEGAPSVFLFPPKPKDTLMISRTPEVTCVVVDVSHEDPEVKFNWYVDGVEVHNAKTKPREEQYNSTYRVVSVLTVLHQDWLNGKEYKCKVSNKALPSSIEKTISKAKGQPREPQVCTLPPSRDELTKNQVSLSCAVKGFYPSDIAVEWESNGQPENNYKTTPPVLDSDGSFFLVSKLTVDKSRWQQGNVFSCSVMHEALHNRFTQKSLSLSPGK light: QIVMSQSPAILSASPGEKVTMTCRARSSVSYIHWYQQKPGSSPKPWIYATSNLASGVPGRFSGSGSGTSYSLTITRVEAEDAATYYCQQWSSKPPTFGGGTKLEIKRTVAAPSVFIFPPSDEQLKSGTASVVCLLNNFYPREAKVQWKVDNALQSGNSQESVTEQDSKDSTYSLSSTLTLSKADYEKHKVYACEVTHQGLSSPVTKSFNRGEC	0	118	28200	42000	19	13.5	1.71	no binding (tested: starting concentration of 1.3×10^-07 M)
